Consider 30 molecules from publication PMC12636033, “Chemical Engineering of Transcription Factors Uncovered Cell-Permeable μMax Modulators”.

Sequences and labels used below:
B1: E-box DNA probe (dsDNA)
DNA 1: CCGGCTGACACGTGGTATTAAT
DNA 2: ATTAATACCACGTGTCAGCCGG
B2: dBr_Jan07_07015 (dsDNA)
DNA 1: CGATACTGTATCGCATGGACAGCACGTGCAATTAGGGTCTGTGTTCCGTTGTCCGTGCTG
DNA 2: CAGCACGGACAACGGAACACAGACCCTAATTGCACGTGCTGTCCATGCGATACAGTATCG
B3: dBr_Jan07_24740 (dsDNA)
DNA 1: ATAGAGCGTCAGAATAGTGACATACACGTGGTCCCCGTCTGTGTTCCGTTGTCCGTGCTG
DNA 2: CAGCACGGACAACGGAACACAGACGGGGACCACGTGTATGTCACTATTCTGACGCTCTAT
B4: dBr_Jan07_34042 (dsDNA)
DNA 1: GCCGAAAGTCCCCCACGTGGTCAGTAAAAGAGAAGAGTCTGTGTTCCGTTGTCCGTGCTG
DNA 2: CAGCACGGACAACGGAACACAGACTCTTCTCTTTTACTGACCACGTGGGGGACTTTCGGC
B5: dBr_Jan07_01852 (dsDNA)
DNA 1: AGGAGTCTTGCCGCACGGTCCCCGTCTTATGCACGTGTCTGTGTTCCGTTGTCCGTGCTG
DNA 2: CAGCACGGACAACGGAACACAGACACGTGCATAAGACGGGGACCGTGCGGCAAGACTCCT
B6: dBr_Jan07_31500 (dsDNA)
DNA 1: CTCCGTGGGTTCGTGAGTTCATGGCGAAAAGCACGTGTCTGTGTTCCGTTGTCCGTGCTG
DNA 2: CAGCACGGACAACGGAACACAGACACGTGCTTTTCGCCATGAACTCACGAACCCACGGAG
B7: dBr_Jan07_06713 (dsDNA)
DNA 1: AGTAACGGGGTCGCTTGATGGGCTCTTCCGCGTGGAGTCTGTGTTCCGTTGTCCGTGCTG
DNA 2: CAGCACGGACAACGGAACACAGACTCCACGCGGAAGAGCCCATCAAGCGACCCCGTTACT
B8: dBr_Jan07_30456 (dsDNA)
DNA 1: GGCGTTGTCAGGAAGGATTGGCTGTCGTCAACACGTGTCTGTGTTCCGTTGTCCGTGCTG
DNA 2: CAGCACGGACAACGGAACACAGACACGTGTTGACGACAGCCAATCCTTCCTGACAACGCC
B9: dBr_Jan07_27761 (dsDNA)
DNA 1: ATATCGACCTTTTATTGAAAACCGGGAGTCTCACGTGTCTGTGTTCCGTTGTCCGTGCTG
DNA 2: CAGCACGGACAACGGAACACAGACACGTGAGACTCCCGGTTTTCAATAAAAGGTCGATAT
B10: dBr_Jan07_17404 (dsDNA)
DNA 1: TTGCGTGTTGTGTCTAATATCCAAACTACACCACGTGTCTGTGTTCCGTTGTCCGTGCTG
DNA 2: CAGCACGGACAACGGAACACAGACACGTGGTGTAGTTTGGATATTAGACACAACACGCAA
B11: dBr_Jan07_38389 (dsDNA)
DNA 1: CAAGCCTATCGCGGCCAATCGGTAAGCACGTGACTAGTCTGTGTTCCGTTGTCCGTGCTG
DNA 2: CAGCACGGACAACGGAACACAGACTAGTCACGTGCTTACCGATTGGCCGCGATAGGCTTG
B12: dBr_Jan07_31967 (dsDNA)
DNA 1: GTGTCACGTGTCGTTCATCCTTATTAACTAGGGTCTGTCTGTGTTCCGTTGTCCGTGCTG
DNA 2: CAGCACGGACAACGGAACACAGACAGACCCTAGTTAATAAGGATGAACGACACGTGACAC
B13: dBr_Jan07_34030 (dsDNA)
DNA 1: GAACGAGGGACCGCTAGGATGCCACGTGATTAAAGTGTCTGTGTTCCGTTGTCCGTGCTG
DNA 2: CAGCACGGACAACGGAACACAGACACTTTAATCACGTGGCATCCTAGCGGTCCCTCGTTC
B14: dBr_Jan07_15488 (dsDNA)
DNA 1: TAGTAGTCGTTGCTAGCTGCAAGGAATGGCGCACGTGTCTGTGTTCCGTTGTCCGTGCTG
DNA 2: CAGCACGGACAACGGAACACAGACACGTGCGCCATTCCTTGCAGCTAGCAACGACTACTA
B15: dBr_Jan07_01656 (dsDNA)
DNA 1: TCGATCACACACGTGCTTATTGTACCAAACACATACGTCTGTGTTCCGTTGTCCGTGCTG
DNA 2: CAGCACGGACAACGGAACACAGACGTATGTGTTTGGTACAATAAGCACGTGTGTGATCGA
B16: dBr_Jan07_33198 (dsDNA)
DNA 1: GCATAAACAAGGCCGCTGTAGCGGTTCGGTGCACGTGTCTGTGTTCCGTTGTCCGTGCTG
DNA 2: CAGCACGGACAACGGAACACAGACACGTGCACCGAACCGCTACAGCGGCCTTGTTTATGC
B17: dBr_Jan07_18911 (dsDNA)
DNA 1: ACAAACCCCGCACGTGCCTTCGCCCCCTCCTATGCGGTCTGTGTTCCGTTGTCCGTGCTG
DNA 2: CAGCACGGACAACGGAACACAGACCGCATAGGAGGGGGCGAAGGCACGTGCGGGGTTTGT
B18: dBr_Jan07_27753 (dsDNA)
DNA 1: TTTTCATACGAACTTCGAGCTCCCCACGTGGTTCTTGTCTGTGTTCCGTTGTCCGTGCTG
DNA 2: CAGCACGGACAACGGAACACAGACAAGAACCACGTGGGGAGCTCGAAGTTCGTATGAAAA
B19: dBr_Jan07_02206 (dsDNA)
DNA 1: GGCAGTCGGTCGTTCCAGATATTAGGATCTCCACGTGTCTGTGTTCCGTTGTCCGTGCTG
DNA 2: CAGCACGGACAACGGAACACAGACACGTGGAGATCCTAATATCTGGAACGACCGACTGCC
B20: dBr_Jan07_40162 (dsDNA)
DNA 1: CCTTGAACCATTAGCACGTGGATATATAAATCTTACGTCTGTGTTCCGTTGTCCGTGCTG
DNA 2: CAGCACGGACAACGGAACACAGACGTAAGATTTATATATCCACGTGCTAATGGTTCAAGG
B21: dBr_Jan07_23401 (dsDNA)
DNA 1: TCTATGCTCGCGGATGCCCTTAAACTAGGCACGTGTGTCTGTGTTCCGTTGTCCGTGCTG
DNA 2: CAGCACGGACAACGGAACACAGACACACGTGCCTAGTTTAAGGGCATCCGCGAGCATAGA
B22: dBr_Jan07_04601 (dsDNA)
DNA 1: GGTGTACGCTAAGGATGCTACTACGACCTAACACGTGTCTGTGTTCCGTTGTCCGTGCTG
DNA 2: CAGCACGGACAACGGAACACAGACACGTGTTAGGTCGTAGTAGCATCCTTAGCGTACACC
B23: dBr_Jan07_37076 (dsDNA)
DNA 1: AAAACGTTCCGAGCCATTTAGAAGGGGTCACGTGATGTCTGTGTTCCGTTGTCCGTGCTG
DNA 2: CAGCACGGACAACGGAACACAGACATCACGTGACCCCTTCTAAATGGCTCGGAACGTTTT
B24: dBr_Jan07_38976 (dsDNA)
DNA 1: CGACACAGAAAACAATTCCGACTTGCTTTCCGCGTGGTCTGTGTTCCGTTGTCCGTGCTG
DNA 2: CAGCACGGACAACGGAACACAGACCACGCGGAAAGCAAGTCGGAATTGTTTTCTGTGTCG
B25: dBr_Jan07_14484 (dsDNA)
DNA 1: CTGCAGTTCTACTGTATCCACGACATAGAGACACGTGTCTGTGTTCCGTTGTCCGTGCTG
DNA 2: CAGCACGGACAACGGAACACAGACACGTGTCTCTATGTCGTGGATACAGTAGAACTGCAG
B26: dBr_Jan07_05071 (dsDNA)
DNA 1: CGTGTAACCTTCAGGCACGTGGTTTAATCGTTATCCGTCTGTGTTCCGTTGTCCGTGCTG
DNA 2: CAGCACGGACAACGGAACACAGACGGATAACGATTAAACCACGTGCCTGAAGGTTACACG
B27: dBr_Jan07_15201 (dsDNA)
DNA 1: TTGCCTGGGATTAGATTCTACGCTCACGATGCACGTGTCTGTGTTCCGTTGTCCGTGCTG
DNA 2: CAGCACGGACAACGGAACACAGACACGTGCATCGTGAGCGTAGAATCTAATCCCAGGCAA
B28: dBr_Jan07_17964 (dsDNA)
DNA 1: ACTTGAATGAGGGCCTTTGATCTGCTTTACTCACGTGTCTGTGTTCCGTTGTCCGTGCTG
DNA 2: CAGCACGGACAACGGAACACAGACACGTGAGTAAAGCAGATCAAAGGCCCTCATTCAAGT
B29: dBr_Jan07_19348 (dsDNA)
DNA 1: ACCTCTGTAAGTCTGAGTCTGATAACCACGTGTCGGGTCTGTGTTCCGTTGTCCGTGCTG
DNA 2: CAGCACGGACAACGGAACACAGACCCGACACGTGGTTATCAGACTCAGACTTACAGAGGT

Chain of WT Max (P61244 other isoform, or with tags, fused parts or gaps M65Nle): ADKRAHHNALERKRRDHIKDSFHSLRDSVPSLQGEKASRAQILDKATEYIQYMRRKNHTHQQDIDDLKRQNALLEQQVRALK

The target of one data set is WT Max (synthetic µMax scaffold) (UniProt P61244 22-102). As to the kind of experiment: BLI; EMSA: 10 mM MES pH 6.0, 150 mM KCl, 1 mM MgCl2, 10% glycerol, room temperature, 1 uM DNA; BLI: global 1:1 fit, buffer not in material. As to conditions: chain copies: 2. In general terms: Biolayer interferometry detects binding as a change in optical thickness at a sensor tip.
Chain of WT Max (synthetic µMax scaffold) (P61244 22-102): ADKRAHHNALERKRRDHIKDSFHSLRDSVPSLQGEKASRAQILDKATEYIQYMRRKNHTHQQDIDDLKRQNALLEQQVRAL
Turning to B1, the dissociation constant Kd (as a rule, the concentration at which binding is half-saturated) is 8.1 ± 2.24 nM.

Another data set has as its target WT Max (Homo sapiens, UniProt P61244-2 13-93, M65Nle, norleucine written as M; other non-natural residues written as X). The data set is described as follows: PBM; 50-200 nM protein; PBS, 2% milk, BSA, salmon testes DNA, 0.02% Triton X-100. As to conditions: chain copies: 2; label: surface-attached array probe.
With B2, the binding signal was 3.94 robust z of log adjusted intensity (ours), mean of two arrays.
The same measure, in the same setting: under B3 stands 3.51 robust z of log adjusted intensity (ours), mean of two arrays; under B4, 4.32 robust z of log adjusted intensity (ours), mean of two arrays; under B5, 3.5 robust z of log adjusted intensity (ours), mean of two arrays.
Regarding B6, the binding signal was 4.51 robust z of log adjusted intensity (ours), mean of two arrays.
On the same count and under the same terms, as for B7, the figure is 3.79 robust z of log adjusted intensity (ours), mean of two arrays.
The same measure, in the same setting: as for B8, the figure is 3.62 robust z of log adjusted intensity (ours), mean of two arrays; as for B9, 3.44 robust z of log adjusted intensity (ours), mean of two arrays; as for B10, 4.24 robust z of log adjusted intensity (ours), mean of two arrays.
Same read-out and setting: as for B11, the figure is 3.67 robust z of log adjusted intensity (ours), mean of two arrays; as for B12, 3.79 robust z of log adjusted intensity (ours), mean of two arrays; as for B13, 3.45 robust z of log adjusted intensity (ours), mean of two arrays.
For the molecule B14, the binding signal was 3.81 robust z of log adjusted intensity (ours), mean of two arrays.
Same read-out and setting: as for B15, the figure is 3.68 robust z of log adjusted intensity (ours), mean of two arrays; as for B16, 3.33 robust z of log adjusted intensity (ours), mean of two arrays; as for B17, 3.79 robust z of log adjusted intensity (ours), mean of two arrays.
On the same count and under the same terms, as for B18, the figure is 5.1 robust z of log adjusted intensity (ours), mean of two arrays.
On the same count and under the same terms, under B19 stands 3.71 robust z of log adjusted intensity (ours), mean of two arrays; under B20, 3.32 robust z of log adjusted intensity (ours), mean of two arrays.
Regarding B21, the binding signal was 3.69 robust z of log adjusted intensity (ours), mean of two arrays.
Still for that read-out and setting: as for B22, the figure is 3.7 robust z of log adjusted intensity (ours), mean of two arrays.
Same read-out and setting: under B23 stands 3.31 robust z of log adjusted intensity (ours), mean of two arrays; under B24, 3.81 robust z of log adjusted intensity (ours), mean of two arrays.
On the same count and under the same terms, under B25 stands 5.27 robust z of log adjusted intensity (ours), mean of two arrays.
As to B26, the binding signal was 4.32 robust z of log adjusted intensity (ours), mean of two arrays.
Still for that read-out and setting: as for B27, the figure is 3.45 robust z of log adjusted intensity (ours), mean of two arrays.
For B28, the binding signal was 3.59 robust z of log adjusted intensity (ours), mean of two arrays.
The same measure, in the same setting: as for B29, the figure is 5.01 robust z of log adjusted intensity (ours), mean of two arrays.

In a further data set the target is µMax20 (UniProt P61244). The data set is described as follows: BLI. As to conditions: EMSA: 10 mM MES pH 6.0, 150 mM KCl, 1 mM MgCl2, 10% glycerol, room temperature, 1 uM DNA; BLI: global 1:1 fit, buffer not in material. Background: A gel shift assay detects complexes by their altered migration in electrophoresis.
Chain of µMax20 (P61244 whole entry): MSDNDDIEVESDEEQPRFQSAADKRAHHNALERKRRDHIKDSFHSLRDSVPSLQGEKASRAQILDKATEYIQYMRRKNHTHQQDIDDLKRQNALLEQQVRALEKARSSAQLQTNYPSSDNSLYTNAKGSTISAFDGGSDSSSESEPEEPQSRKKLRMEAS
Turning to “CCGGCTGACACGTGGTATTAAT (double strand) [E-box DNA probe]”, the Kd was 4.38 nM. This counts as single-digit nanomolar.

The target in the next data set is µMax H19Y (UniProt P61244 22-102, H28Y). As to the kind of experiment: EMSA; 3 uM protein, 1 uM DNA; EMSA: 10 mM MES pH 6.0, 150 mM KCl, 1 mM MgCl2, 10% glycerol, room temperature, 1 uM DNA; BLI: global 1:1 fit, buffer not in material. As to conditions: chain copies: 2.
Chain of µMax H19Y (P61244 22-102 H28Y): as the sequence (P61244 22-102) above, with H7Y counted along it
For the molecule B1, the binding result is listed as “binds”.
